This note sets out measurements from publication PMC9757036.

The labels stand for the following.
B1: T8:P9 (D11) (dsDNA)
DNA 1: AATACATAAACGCTCCAGGCAAT
DNA 2: GCCTGGAGCGC
modifications: primer 3' ddC
B2: T8:P12 (R8-D3) (mixed)
DNA: AATACATAAACGCTCCAGGCAAT
RNA: GCCUGGAGCGC
modifications: primer nt 1-8 RNA, nt 9-11 DNA, 3' ddC
B3: T7:P12 (R8-D3) (mixed)
DNA: AATACATAATCGCTCCAGGCAAT
RNA: GCCUGGAGCGC
modifications: primer nt 1-8 RNA, nt 9-11 DNA, 3' ddC
B4: T7:P9 (D11) (dsDNA)
DNA 1: AATACATAATCGCTCCAGGCAAT
DNA 2: GCCTGGAGCGC
modifications: primer 3' ddC
B5: T6:P9 (D11) (dsDNA)
DNA 1: AATACATAAGCGCTCCAGGCAAT
DNA 2: GCCTGGAGCGC
modifications: primer 3' ddC
B6: T6:P12 (R8-D3) (mixed)
DNA: AATACATAAGCGCTCCAGGCAAT
RNA: GCCUGGAGCGC
modifications: primer nt 1-8 RNA, nt 9-11 DNA, 3' ddC

By Kd is commonly meant the concentration at which binding is half-saturated.

The target of this data set is DNA polymerase alpha catalytic domain (hPolα, hPolαCD) (human, UniProt P09884 335-1257). Kind of data set: BLI. A general note: BLI is a label-free optical method that tracks binding on a fibre tip over time.
DNA polymerase alpha catalytic domain (hPolα, hPolαCD), sequence (P09884 335-1257): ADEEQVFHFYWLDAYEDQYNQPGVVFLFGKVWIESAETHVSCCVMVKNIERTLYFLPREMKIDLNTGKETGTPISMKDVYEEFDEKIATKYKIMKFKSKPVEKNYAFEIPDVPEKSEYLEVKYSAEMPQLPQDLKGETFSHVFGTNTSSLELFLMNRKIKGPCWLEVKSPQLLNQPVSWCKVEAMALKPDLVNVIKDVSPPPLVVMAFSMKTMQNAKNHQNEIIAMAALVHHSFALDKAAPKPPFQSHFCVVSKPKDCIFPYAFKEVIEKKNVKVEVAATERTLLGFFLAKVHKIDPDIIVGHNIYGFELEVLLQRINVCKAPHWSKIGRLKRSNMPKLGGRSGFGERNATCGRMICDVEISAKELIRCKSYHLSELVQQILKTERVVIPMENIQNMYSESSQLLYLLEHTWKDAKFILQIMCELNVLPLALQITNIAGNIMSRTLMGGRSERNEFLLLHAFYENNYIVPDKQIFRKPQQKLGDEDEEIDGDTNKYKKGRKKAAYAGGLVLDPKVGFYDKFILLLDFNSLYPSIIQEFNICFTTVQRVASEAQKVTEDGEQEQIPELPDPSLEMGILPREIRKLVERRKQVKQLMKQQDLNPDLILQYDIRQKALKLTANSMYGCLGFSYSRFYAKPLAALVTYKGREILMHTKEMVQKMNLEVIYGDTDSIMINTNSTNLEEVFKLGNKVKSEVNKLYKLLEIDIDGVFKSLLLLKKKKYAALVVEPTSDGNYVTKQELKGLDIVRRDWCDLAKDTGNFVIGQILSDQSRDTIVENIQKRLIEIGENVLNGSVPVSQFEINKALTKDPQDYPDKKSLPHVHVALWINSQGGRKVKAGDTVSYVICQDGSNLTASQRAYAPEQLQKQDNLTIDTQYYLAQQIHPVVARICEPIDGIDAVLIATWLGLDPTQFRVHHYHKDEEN
Regarding B1, the Kd was 1880 ± 33 nM.

Molecule B2 returned a Kd of 730 ± 51 nM.

In turn, B3 had a Kd of 198 ± 9.2 nM.

On to B4, for which binding was characterised by a dissociation constant (Kd) of 1130 ± 94 nM.

Turning to B5, the affinity, expressed as Kd, was 146 ± 17 nM. Compared with the last molecule, the Kd is about 7.7-fold lower.

Consider B6, for which the Kd is 11.3 ± 0.69 nM. Compared with the last molecule, the Kd is about 13-fold lower.
